B1: 007-169 (antibody, V domains shown)
VH: EVQLVQSGAEVKKPGESLKISCKGSGYSFTSYWIGWVRQMPGKGLEWMGIIYPGDSDTRYSPSFQGQVTISADKSISTAYLQWSSLKASDTAMYYCARDYGDYYFDYWGQGTLVTVSS
VL: QSALTQPRSVSGSPGQSVTISCTGTSSDVGGYNYVSWYQQHPGKAPKLMIYDVSKRPSGVPDRFSGSKSGNTASLTISGLQAEDEADYYCCSYAGSYTGVFGEGTKLTVL
notes: also called 007-169-HC; 007-169-LC
B2: 007-142 (antibody, V domains shown)
VH: EVQLVQSGAEVKKPGESLKISCKGSGYSFTSYWIGWVRQMPGKGLEWMGIIYPGDSDTRYSPSFQGQVTISADKSISTAYLQWSSLKASDTAMYYCARDYGDYYFDYWGQGTLVTVSS
VL: LTQPRSVSGSPGQSVTISCTGTSSDVGGYNYVSWYQQHPGKAPKLMIYDVSKRPSGVPDRFSGSKSGNTASLTISGLQAEDEADYYCCSYAGSYTGVFGGGTKLTVL
notes: also called 007-142-HC; 007-142-LC
B3: 008-218 (antibody, human IgG1, V domains shown)
VH: EVQLVESGGGLVQPGRSLRLSCAASGFTFDDYAMHWVRQVPGKGLEWVSGISWSSGSIGYADSVKGRFTISRDNAKNSLYLQMNSLRAEDTALYYCAKDRASSWYAYGMDVWGQGTLVTV
VL: NFMLTQPHSVSESPGKTVTISCTRSSGSIASNYVQWYQQRPGSSPTTVIYDDNQRPSGVPNRFSGSIDSSSNSASLIISGLKTEDEADYYCQSTRVFGGGTKLTVL
notes: also called 008-218-HC; 008-218-LC
B4: 003-109 (antibody, V domains shown)
VH: VQLVESGGGVVQPGRSLRLSCAASGFTFSSYGMHWVRQAPGKGLEWVAVIWYDGSNKYYADSVKGRFTISRDNSKNTLYLQMNSLRAEDTAVYYCARRHYDFDAFDIWGQGTMVTVSS
VL: QSALTQPASVSGSPGQSITISCTGTSSDVGGYNYVSWYQQHPGKAPKLMIYEVSNRPSGVSNRFSGSKSGNTASLTISGLQAEDEADYYCSSYTSSSTLYVFGTGTKVTVL
notes: also called 003-109-HC; 003-109-LC
B5: 007-168 (antibody, human IgG1, V domains shown)
VH: VQLVQSGAEAKKPGESLKISCKASGYSFTTFWIGWVRQMPGSGLEWIGIIYPGDSDTRYSPSFQGHVTISADRSTSTAYLQWSSLKASDTAMYYCARSAVFDYWGQGTLVTVSS
VL: EIVMTQSPATLSVSPGGRATLSCRASQSVSSNLAWYQQKPGQAPRLLIYGASTRATGIPVRFSGSGSGTEFTLTISSLQSEDFAVYYCQQYNNWPTSWTFGQGTKVEIK
B6: 007-124 (antibody, human IgG1, V domains shown)
VH: EVQLVESGGGVGRPGGSLRLSCAASGFTFDDYGMSWVRQVPGKGLEWVSGINWSGADTGYADSVKGRFTISRDNAKNSLYLQMNSLRVEDTALYHCAREVGIAVTGYWFDPWGQGTLVTV
VL: SYELTQPPSVSVAPGQTARISCGGNHSESVHWYQQKPGQAPVLVVYDDSDRPSGIPERFSGSKSGNTATLTISRVEGGDEAEYYCQVWDSSSDHPGVVFGGGTKLTVL
notes: also called 007-124-HC; 007-124-LC

These binders were tested against T1, NR1 construct with mutation N368Q (human, UniProt Q05586 19-938) (assay: immunofluorescence staining of HEK293 cells transfected with NR1 N368Q).
T1 construct: whole, on cells; also called mutated NR1 construct; the mutant
Method: The cDNA of the human ionotropic glutamate N-methyl-D-aspartate 1 receptor (GRIN1) was kindly provided by Prof. Dr. Wanker (MDC, Berlin) and cloned into pBudCE4.1 (Life Technologies). NR1 DNA (1 μg) was mixed with 3 μg PEI and 100 μl 150 mM NaCl, vortexed and incubated for 10 min, and HEK293 cells were transiently transfected. Two days later, HEK293 cells on cover slips were fixed with methanol at −20° C. for 4 min. In addition, HEK293 cells transfected with a different NMDAR clone, leucine-rich glioma-inactivated 1 (LGI1), contactinassociated protein 2 (Caspr2), α-amino-3-hydroxy-5-methyl-4-isoxazolepropionic acid (AMPA) receptor, and gamma-aminobutyric acid b (GABAb) receptor were used (Autoimmune-Enzephalitis-Mosaik 1, Euroimmun, Lübeck, Germany). For staining with monoclonal antibodies and control antibodies, cells were washed in PBS, preincubated with 5% normal goat serum containing 2% bovine serum albumin and 0.1% Triton X-100, and incubated with antibodies starting at a 1:2 dilution of the cell culture supernatant overnight at 4° C. Secondary fluorescently labeled anti-human IgG antibodies were used for visualization. Sections were washed in PBS and coverslips mounted with Immu-Mount (ThermoScientific).
Point mutation N368Q was introduced into the NR1 construct using the Stratagene QuikChange Mutagenesis kit according to manufacturer's instructions and the mutant transiently transfected into HEK293 cells as described previously (Doss et al, 2014). Staining of HEK293 cells expressing natural and mutated NR1 construct was performed as described above.

Question: Does B1 bind?
Answer: no binding

Question: Does B2 bind?
Answer: no binding

Question: Does B3 bind?
Answer: no binding

Question: Does B4 bind?
Answer: no binding

Question: Does B5 bind?
Answer: no binding

Question: Does B6 bind?
Answer: no binding

— patent publication US20180244802A1 (DEUTSCHES ZENTRUM FUR NEURODEGENERATIVE ERKRANKUNGEN E V …, published 2018)
